Measured values taken from a protein production outcome set (Wang et al. 2014).

Assay: label from the status in PepcDB records
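Further: failed if final PepcDB status was selected cloned or expressed and not failed if soluble or beyond.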

Q: With “MSKSTAEIRQAFLDFFHSKGHQVVASSSLVPNNDPTLLFTNAGMNQFKDVFLGLDKRNYSRATTSQRCVRAGGKHNDLENVGYTARHHTFFEMLGNFSFGDYFKHDAIQFAWELLTGENWFALPKERLWVTVYETDDEAYEIWEKEVGIPRERIIRIGDNKGAPYASDNFWQMGDTGPCGPCTEIFYDHGDHIWGGPPGSPEEDGDRYIEIWNIVFMQFNRQADGTMEPLPKPSVDTGMGLERIAAVLQHVNSNYDIDLFRTLIEAVAKVTGATDLGNKSLRVIADHIRSCAFLVADGVLPSNENRGYVLRRIIRRAVRHGNMLGAKETFFYKLVGPLIEVMGSAGEELKRQQAQVEQVLKTEEEQFARTLERGLALLDEELAKLQGDTLDGETAFRLYDTYGFPVDLTADVCRERNIKVDEAGFEAAMEEQRRRAREASGFGADYNAMIRVDSASEFKGYDHLELNGKVTALFVDGKAVEAINAGQEAVVVLDQTPFYAESGGQVGDKGELKGAGFTFAVDDTQKYGQAIGHLGKLSAGALKVGDAVQADVDEARRARIRLNHSATHLMHAALRQVLGTHVAQKGSLVSDKVLRFDFSHNEAMKPSEIREVEDLVNAQIRRNLPIETNIMDLDAAKAKGAMALFGEKYDERVRVLSMGDFSTELCGGTHASRTGDIGLFRIISESGTAAGIRRIEAVTGEGAMATVHAQSDRLNDIAHLLKGDSQNLGDKVRAVLERTRQLEKELQQLKDQAAAQESANLSSKAVDLNGVKLLVSELAGIEPKMLRTMVDDLKNQLGSTVIVLATVVEGKVSLIAGVSKDVTDRVKAGELIGMVAQQVGGKGGGRPDMAQAGGTDAAALPAALASVQGWVSAKLQ” as the sequence, how does the protein production read?
A: Its protein production is “failed”.

Q: With “MSKTANFLSLRSNPLPPIFSSTGNSPFLRASSALNLPTTASKPFHSWIRASSRRRLVLGGFGGASLWMNNNMSGKFGGKSFIASARQTNPSPVEQALNKVDWPETFPFKEEDFQRYDESSDSTFYEAPRFVTHIDDPAIAALTKYYSKVLPQSDTPGVSILDMCSSWVSHYPPGYRQERIVGMGMNEEELKRNPVLTEYIVQDLNLNSNLPFEDNSFQVITNVVSVDYLTKPLEVFKEMNRILKPGGLALMSFSNRCFFTKAISIWTSTGDADHALIVGSYFHYAGGFEAPQAVDISPNPGRSDPMYVVYSRKLPMV” as the sequence, how does the protein production read?
A: Its protein production is “failed”.

Q: For “MSKTVVLPQSDSPSVVASVSFWQAFRFWLKLGFISFGGPAGQIAMMHQELVDNRRWISEGRFLHALNFCMVLPGPEAQQLATYIGWLMHKTWGGVIAGVLFILPSLVLLIALAWIYLVWGDVAVVAGIFYGIKPAVAAIVLQAAHRIGSRALKNGAYWAIAAAAFVAIFALNVPFPLIVLAAALVGFIGGRLAPTIFGRADAHHAQSHPGGAAIIDDTTPIPAHAIFSWRRTSQVLIAGMLLWLVPMAALTLMLGWAHPLTQMSWFFTKAALMTFGGAYAVLPYVYQGAVTHYGWLTAGQMMDGLALGESTPGPLIMVVTFVGFVGGYTKAVLGVDDVLLGGIAAACLVTWFTFLPSFIFILAGGPFIETTHNKVGFTAPLTAITAAVVGVILNLALFFIWHSVWGPSGFDPWSAAIALGAAGLLFRYKWKLTWVLATAAAVGLIVHMAGLSGAG”, which protein production is on record?
A: The protein production was “failed”.

Q: With “MSKVIYKISIDLGGIVKRNFEKETKNCGKVNEEVLFKILKSNDKSEIGIKFKFKDIKSIRQFKDSVPITEYKDYEKYINRMADGEGNVLMSEKVEYFGHTSGTTGKQKLVPCTKNSRRRASKYMALLVNRFCYDNFKENWNYARGMMIADIVMTTYTKGKIPICSATSGGMKGIKHLLPYLYTSPIEVMEIKDKETALYLHLLFGLEEEELLYISGVFISNILDLFRTLEKNNKALVRDIQKGSISEELNIDEGLRKVLNKKLKPNNKRAMELEKEFKKGFKGIAKRIWPNLLYIASVTGANFSIYNDKVYYYIDSIPIYSAAYGSTEAMIGINPYASKVLYVITPSAVFYEFIPIGEKGEESFDTLLLSELKLGGRYEVVITNYAGLYRYKIGDVVKVVGFYNKCPEIEFLYRKNQVLNMAAEKTNEEHLTYAIKNTIKKLNLDLVDYTTEPDNSITPGRYIFYFEFRNNMYGFSTEKLQNILDDELRVSNLAYNRARNNKKLGMLKVEVLAPNTFDLIKEALFNKGISKNQIKIPRVIINNKIVMDIINRNKIKFVKKSVI” as the sequence, how does the protein production read?
A: The protein production was “failed”.

Q: Which protein production does the source give for “MSKVKIELFTSPMCPHCPAAKRVVEEVANEMPDAVEVEYINVMENPQKAMEYGIMAVPTIVINGDVEFIGAPTKEALVEAIKKRL” here?
A: The protein production was “not failed”.

Q: Which protein production does the source give for “MSKVNEITRESWILSTFPEWGTWLNEEIEQTVVEPNTFSMWWLGCTGIWLKSAGNTNLSIDFWCGTGKKTQKNRLMNTQHQMMRMGGVEALQPNLRTSIFPLDPFAIKEIDAVLASHDHADHIDVNVAAAVLQNCGEHVKFIGPQACVDLWLGWGVPQERCIVAKVGDVLEIGDVKIRVLDSFDRTALVTLPKGVSSYDKAILDGMDERAVNYLIETSGGSVYHSGDSHYSNYYAKHGNDYQIDVALLSYGENPRGVTDKMTSSDVLRAAESLDCQVVVPFHHDIWANFQNDPREIEVLWNMKKDRLQYQFAPFFWQVGGKYTYPTDKGRMHYQHFRGFQDIFKNEPELPYKAFL” here?
A: The protein production was “not failed”.

Q: For “MSLAHKFDPSKIKKLDDPSRLELFDPEKVLKEFGLKEGMTVLDVGTGAGFYLPYLSKMVGEKGKVYAIDVQEEMVNYAWEKVNKLGLKNVEVLKSEENKIPLPDNTVDFIFMAFTFHELSEPLKFLEELKRVAKPFAYLAIIDWKKEERDKGPPPEEVYSEWEVGLILEDAGIRVGRVVEVGKYCFGVYAMIVKQEEENPLMNVPFKIPPGEGHHHHHH”, which protein production is on record?
A: The protein production was “not failed”.

Q: Which protein production does the source give for “MSLAHPPRLNDDKPVIWTVSVTRLFELFRDISLEFDHLANITPIQLGFEKAVTYIRKKLANERCDAIIAAGSNGAYLKSRLSVPVILIKPSGYDVLQELAKAGKLTSSIGVVTYQETIPALVAFQKTFNLRLDQRSYITEEDARGQINELKANGTEAVVGAGLITDLAEEAGMTGIFIYSAATVRQAFSDALDMTRMSLRHNTHDATRNALRTRYVLEGHHHHHH” here?
A: The protein production was “not failed”.

Q: With “MSLAKISKIEAQKRKGRYNIYLDGKYAFPVAESVLIQFRLMKGTELDEKQIAAIATADQQAKAYSRMLDYLSYQMRTESDIVKKLKEIDTPEEFVEPILKKLRGQQLIDDHAYAASYVRTMINTDLKGPGIIRQHLRQKGIGESDIDDALTQFTPEVQAELAKKLALKLFRRYRNQPERRREQKVQQGLTTKGFSSSVYEMIKDEVVPQPDLEEGHHHHHH” as the sequence, how does the protein production read?
A: Its protein production is “not failed”.

Q: With “MSLALRGELVVDKTKRKKRRELSEEQKQEIKDAFELFDTDKDQAIDYHELKVAMRALGFDVKKADVLKILKDYDREATGKITFEDFNEVVTDWILERDPHEEILKAFKLFDDDDSGKISLRNLRRVARELGENMSDEELRAMIEEFDKDGDGEINQEEFIAIMTGDI” as the sequence, how does the protein production read?
A: The protein production was “not failed”.

Q: With “MSLANWYLDNESSRLSFTSTKNADIAEVHRFLVLHGKVDPKGLAEVEVETESISTGIPLRDERLREQVFQVHKFPVAQINAQLDMRPINNLAPGAQLELRLPLTVSLRGKSHSYNAELLATRLDERRFQVVTLEPLVIHAQDFDMVSDFNALRNAAGLSAVSLSVPVGAVLIFTAREGHHHHHH” as the sequence, how does the protein production read?
A: Its protein production is “not failed”.

Q: Which protein production does the source give for “MSLARTEKIYIYGASGHGLVCEDVAKNMGYKECIFLDDFKGMKFESTLPKYDFFIAIGNNEIRKKIYQKISENGFKIVNLIHKSALISPSAIVEENAGILIMPYVVINAKAKIEKGVILNTSSVIEHECVIGEFSHVSVGAKCAGNVKIGKNCFLGINSCVLPNLSLADDSILGGGATLVKNQDEKGVFVGVPAKRMEGGSHHHHHH” here?
A: The protein production was “not failed”.

Q: For “MSLASFPHRNLTWNDINFVHTTDTHGWYSGHINQPLYHANWGDFISFTTHMRRIAHSRNQDLLLIDSGDRHDGNGLSDITSPNGLKSTPIFIKQDYDLLTIGNHELYLWENSKQEYETVVNHFQDKYVCSNVDIRLDNGLFVPLGLKYKYFTTPIRGIRVMAFGFLFDFKRFNSGTRVTPMAETIHEPWFQEALKHEVDLIIIVGHTPISHNWGEFYQVHQYLRQFFPDTIIQYFGGHSHIRDFTVFDSLSTGLQSGRYCETVGWTSVNLDKADLNLPVRQRFSRSYIDFNTDSFKYHTNLDKEFDTAKGKLVSKLIRETRKELKLDTLIGYVKTNYYVDYVPIDHPKSIFNLLALKILKTLPKSKHEERITIINTGSIRYDLYKGPYTIDSKFIVSPFENIWVNITVPKSVATKVAAKLNDADYISASRLKPPHQYDLQVQDLSTSPHQAHFEMQEKLPKGYVTHDDFGADGDDTLHRAVVNFPVPNVIQSVEINDEVDSPVNLVFYSFITPNIIWALKELNFSTEQVPTPYSDIYLGTLLNEFVANNEGHHHHHH”, which protein production is on record?
A: The protein production was “not failed”.

Q: Which protein production does the source give for “MSLAVTMFKRARAEIFDRNREVGISNVTTAASLVTFPVLAGILGGVVPSVRTPSAAMVSGVQHFAAGIVMAAVAGEVLPDLRSRGPLWLIVVGFSAGVAVLVALRRFDGHGEHQDGDDVGELPVGFLTVVAVDLFIDGLLVATGATVSSRTAIIITIALTVEVLFLGLAVALRLAGSGMPRIRAAATTSALSLVIAVGGVSGAVALGRAGNTVLTLVLAFAAGALLWLVVEELLVEAHETPERPWMAVMFFAGFLILYGLGVME” here?
A: Its protein production is “failed”.

Q: With “MSLCRWAAYHGTPIFLEDVISRPGHSLIAQSAHAEECKTATNGDGFGVAWYDARPEPGLYRDVYPAWSDPNLRAVAHHVRSGLFLSHVRASTGSCISRNNCHPFAARRWCFMHNGQVGGFEAFRKQADMAIADEFYTYRKGSTDSEVLFLLALSEGLEHDPHGALARAIARLEGLSRAHGTTPHMRLSAAFSDGQTLYAARYSSDHIAPSVYYRYSHARQGWAVVSEPLETDEGDWTELRPGRMLTIGAEGAAERDFAPADLGRAAEGHHHHHH” as the sequence, how does the protein production read?
A: Its protein production is “not failed”.

Q: Which protein production does the source give for “MSLDRTTQQPFGNGYLSVEQANLILNHLPLEITFVNKDDIFQYYNDSVPAAEMVFKRTPSQVGRNVELCHPPKVLDKVKKVFELLRNGQRDKVNMWFQSERLGKFVYVTYAAVRDQAGDFQGVLEYVQDIKPFFELDSEFNRDEGHHHHHH” here?
A: Its protein production is “not failed”.

Q: For “MSLDSDPDTLVVHTQLGTTAPGSPTYLAAVDRFREENPGVKIKNLVNGDDLAQVYETSRLARKEADVVMVNLYDKTLAWTDVGATVDVKPYLDDWGLRGRVLPAALADWTDDEGRVRAFPYFATNWPVAYNRALLDRAGVDAIPTTGDQLIAAARKLRAKGIAPVTVGGNDWTGQKLLAQIIQTFLSQDEARHVYSTGDFGVRGARLGIEYFAHLRDAGVFADKAQGLTSDSMTTQFNTEEAAVQSAMSSALAKVPEKVAGHTEVGGWPLADGAAHDGPTVIRAYTLIGFWISPNGVRKIEQVEKFLRFMYRPDVVARFVTESGRDMALRTDAVSTGFPLVGAAQRLGSEVSQVLLPDVYVPPAAAQPLITATSTSFTRGTSPARVRAALESAYRSVEGHHHHHH”, which protein production is on record?
A: The protein production was “not failed”.

Q: With “MSLDSISLIKTPIEAELEDFKALFDTPLSDSNALLDSVITHIRKRNGKMMRPILVLLVARLYGAVTPATLHAAVSLELLHTASLVHDDVVDESTERRGQLSVNAIFNNKVSVLAGDYLLATSLVHAEQTNNYEIIRLVSSLGQKLAEGELLQLSNVSNHSFSEEVYFDVIRKKTAALFAACAEAAALSVQVGEEEVAFARLLGEYIGICFQIKDDIFDYFDSKKIGKPTGNDMLEGKLTLPALYALNTTKDAWAEQIAFKVKEGTATPDEIVRLIEFTKDNGGIEYACRTIEQYKKKAFDLLAALPDSNICLALRTYLDYVVAREKEGHHHHHH” as the sequence, how does the protein production read?
A: Its protein production is “not failed”.

Q: For “MSLDSRKPGHRPVTMRDVAKAAGVSRMTVSRALKKDSPISSETRERILKVVKDMNYVPDQVAGSLTTKRSGFVGLLLPSLNNLHFAQTAQSLTDVLEQGGLQLLLGYTAYSPEREEQLVETMLRRRPEAMVLSYDGHTEQTIRLLQRASIPIVEIWEKPAHPIGHTVGFSNERAAYDMTNALLARGFRKIVFLGEKDDDWTRGAARRAGFKRAMREAGLNPDQEIRLGAPPLSIEDGVAAAELILQEYPDTDCIFCVSDMPAFGLLSRLKSIGVAVPEQVSVVGFGNFEVSRFASPEISTVRVDPIAIGRETGSLILRLLDPKQRSPQTAQHITLPPVLEFRPSLKNEGHHHHHH”, which protein production is on record?
A: The protein production was “not failed”.
